Assay results: publication PMC5320943 (Structure (London, England : 1993), 2016)

Assays:
[1] = target: wild-type vaginolysin (VLY^wt) (Gardnerella vaginalis, UniProt B2YGA4 31-516); test: MST
[2] = target: T1, wild-type intermedilysin (ILY^wt) (Streptococcus intermedius, UniProt Q9LCB8 34-532); test: MST
T1 sequence: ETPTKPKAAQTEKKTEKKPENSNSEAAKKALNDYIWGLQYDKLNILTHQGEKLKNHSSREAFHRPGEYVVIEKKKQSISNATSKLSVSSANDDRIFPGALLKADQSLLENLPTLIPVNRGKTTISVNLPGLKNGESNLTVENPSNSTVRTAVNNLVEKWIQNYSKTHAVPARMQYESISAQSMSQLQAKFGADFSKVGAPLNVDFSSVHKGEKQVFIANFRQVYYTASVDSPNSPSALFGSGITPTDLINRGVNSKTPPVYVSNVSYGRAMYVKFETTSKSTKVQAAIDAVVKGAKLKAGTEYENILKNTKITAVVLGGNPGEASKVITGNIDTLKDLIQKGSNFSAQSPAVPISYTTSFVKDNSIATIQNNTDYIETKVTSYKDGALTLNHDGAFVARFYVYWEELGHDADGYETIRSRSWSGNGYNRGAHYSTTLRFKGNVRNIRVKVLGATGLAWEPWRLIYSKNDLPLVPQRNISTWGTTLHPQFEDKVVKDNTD

B1: CD59 mutant D22A (CD59^D22A) (receptor, human)
chain: LQCYNCPNPTADCKTAVNCSSAFDACLITKAGLQVYNKCWKFEHCNFNDVTTRLRENELTYYCCKKDLCNFNEQLEN
modifications: Dylight 650 label (in the microscale thermophoresis only)
For B1, the Kd [1] was 779 nM and the Kd [2] was 367 nM.
